Experimental findings from publication PMC4678828, “Binding dynamics of a monomeric SSB protein to DNA: a single-molecule multi-process approach” are described below.

The target in data set [1] is T1, A647-SsoSSB A114C (Sulfolobus solfataricus, UniProt Q97W73 1-148, A114C).
T1 sequence: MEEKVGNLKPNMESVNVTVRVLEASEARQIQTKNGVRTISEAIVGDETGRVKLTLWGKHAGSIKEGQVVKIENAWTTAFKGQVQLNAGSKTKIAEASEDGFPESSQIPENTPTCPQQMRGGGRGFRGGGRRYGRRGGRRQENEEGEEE
The experiment in a line: single-molecule FRET kinetics; first monomer; kon 0.032 nM-1 s-1, koff ~1.75 s-1; 10 mM KCl; 50 mM Tris-HCl pH 7.6, 10 mM KCl, 5% glycerol, 0.1 mg/ml BSA, 5-50 nM DNA, 20 C (PIFE also 65 C). The following applies: protein: recombinant; chain copies: 2; label: 5' biotin, 3' Cy3; single strand.

In data set [2] the target is T1, A647-SsoSSB A114C. As to the kind of experiment: single-molecule FRET/PIFE/quenching kinetics; second monomer; kon 0.16 nM-1 s-1, koff 0.31 s-1; 10 mM KCl; 50 mM Tris-HCl pH 7.6, 10 mM KCl, 5% glycerol, 0.1 mg/ml BSA, 5-50 nM DNA, 20 C (PIFE also 65 C). The following applies: protein: recombinant; chain copies: 2; label: 5' biotin, 3' Cy3; single strand.
Data set [3] has as its target T1, A647-SsoSSB A114C. As to the kind of experiment: single-molecule FRET/PIFE/quenching kinetics; S4 pathway, two monomers in one step; kon 0.006 nM-1 s-1, koff 0.33 s-1; 50 mM Tris-HCl pH 7.6, 10 mM KCl, 5% glycerol, 0.1 mg/ml BSA, 5-50 nM DNA, 20 C (PIFE also 65 C). The following applies: protein: recombinant; chain copies: 2; label: 5' biotin, 3' Cy3; single strand.

The target of data set [4] is T2, SsoSSB wild-type (Sulfolobus solfataricus (Methods print …, UniProt Q97W73 1-148)).
T2 sequence: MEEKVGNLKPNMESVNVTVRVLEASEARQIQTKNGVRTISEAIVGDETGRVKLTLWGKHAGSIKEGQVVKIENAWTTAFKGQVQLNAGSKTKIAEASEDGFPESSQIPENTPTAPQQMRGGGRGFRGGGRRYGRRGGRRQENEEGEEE
The experiment in a line: tryptophan fluorescence quenching; Hill model; 50 mM Tris-HCl pH 7.6, 10 mM KCl, 5% glycerol, 0.1 mg/ml BSA, 5-50 nM DNA, 20 C (PIFE also 65 C). Conditions: protein: recombinant; chain copies: 2; single strand.

For data set [5], the target named is T1, A647-SsoSSB A114C. As to the kind of experiment: ensemble FRET; Hill model, 1.8 ± 0.2; 50 mM Tris-HCl pH 7.6, 10 mM KCl, 5% glycerol, 0.1 mg/ml BSA, 5-50 nM DNA, 20 C (PIFE also 65 C). The following applies: protein: recombinant; chain copies: 2; label: 3' Cy3 (amino); single strand.
Data set [6] addresses T1, A647-SsoSSB A114C. As to the kind of experiment: ensemble FRET; two-site model, first monomer; 50 mM Tris-HCl pH 7.6, 10 mM KCl, 5% glycerol, 0.1 mg/ml BSA, 5-50 nM DNA, 20 C (PIFE also 65 C). Conditions: protein: recombinant; chain copies: 2; label: 3' Cy3 (amino); single strand.
Data set [7] deals with T1, A647-SsoSSB A114C. The experiment in a line: ensemble FRET; two-site model, second monomer; 50 mM Tris-HCl pH 7.6, 10 mM KCl, 5% glycerol, 0.1 mg/ml BSA, 5-50 nM DNA, 20 C (PIFE also 65 C). Conditions: protein: recombinant; chain copies: 2; label: 3' Cy3 (amino); single strand.
For data set [8], the target named is T2, SsoSSB wild-type. The experiment in a line: fluorescence titration (PIFE); 65 C; Hill 1.4 ± 0.2; 50 mM Tris-HCl pH 7.6, 10 mM KCl, 5% glycerol, 0.1 mg/ml BSA, 5-50 nM DNA, 20 C (PIFE also 65 C). The following applies: protein: recombinant; chain copies: 2; label: 3' Cy3 (amino); single strand.
The target in data set [9] is T2, SsoSSB wild-type. As to the kind of experiment: fluorescence titration (PIFE); 20 C, 10 mM KCl; Hill 1.8 ± 0.2; 50 mM Tris-HCl pH 7.6, 10 mM KCl, 5% glycerol, 0.1 mg/ml BSA, 5-50 nM DNA, 20 C (PIFE also 65 C). Conditions: protein: recombinant; chain copies: 2; label: 3' Cy3 (amino); single strand.
In data set [10] the target is T1, A647-SsoSSB A114C. The experiment in a line: fluorescence self-quenching titration; 10 mM KCl; Hill 1.4 ± 0.2 in text; Fig 2 legend gives 20 ± 1 nM, Hill 1.3; 50 mM Tris-HCl pH 7.6, 10 mM KCl, 5% glycerol, 0.1 mg/ml BSA, 5-50 nM DNA, 20 C (PIFE also 65 C). Conditions: protein: recombinant; chain copies: 2; single strand.

B1: BidC12Cy3 (ssDNA)
DNA: CCCCCCCCCCCC
Consider B1, for which the results for the Kd in the data set with A647-SsoSSB A114C [1], in the data set with A647-SsoSSB A114C [2] and with A647-SsoSSB A114C [3] were 54 ± 2 nM, around 2 nM and around 57 nM, respectively.

B2: dT6 (ssDNA)
DNA: TTTTTT
On to B2, for which the Kd with SsoSSB wild-type [4] amounted to 143 ± 95 nM.

B3: dC12Cy3 (ssDNA)
DNA: CCCCCCCCCCCC
In the case of B3, the Kd in the data set with A647-SsoSSB A114C [5] stood at 24 ± 2 nM; in the data set with A647-SsoSSB A114C [6] it was 37 ± 4 nM; with A647-SsoSSB A114C [7], 2.8 ± 1 nM; with SsoSSB wild-type [8], 15 ± 1 nM; in the data set with SsoSSB wild-type [9] it was 9 ± 1 nM.

B4: dC12 (ssDNA)
DNA: CCCCCCCCCCCC
Consider B4, for which the Kd in the data set with A647-SsoSSB A114C [10] is 22 ± 1 nM.
